Article PMC9595883 (Journal of molecular biology, 2022)

T1: Par(1-170) (Staphylococcus aureus plasmid pSK1, UniProt Q9L8I7 1-170)
T1 sequence: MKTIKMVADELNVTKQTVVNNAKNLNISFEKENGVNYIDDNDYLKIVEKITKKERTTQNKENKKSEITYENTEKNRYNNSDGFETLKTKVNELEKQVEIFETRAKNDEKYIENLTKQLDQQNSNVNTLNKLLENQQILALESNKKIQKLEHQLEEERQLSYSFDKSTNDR

B1: centromere repeat 3 (dsDNA)
DNA 1: ATGTTAGGTGGTAAACTA
DNA 2: TAGTTTACCACCTAACAT
B2: centromere repeat 2/5/7 (dsDNA)
DNA 1: ATGTTAGGTAGTAAACTA
DNA 2: TAGTTTACTACCTAACAT
B3: pSK1 Par(1–170) (domain or fragment)
chain: T1 sequence
B4: centromere repeat 1 (dsDNA)
DNA 1: ATGTTAGGTGCCTAACTA
DNA 2: TAGTTAGGCACCTAACAT
B5: centromere repeat 6 (dsDNA)
DNA 1: ATGTTAGGTACTTAGCTA
DNA 2: TAGCTAAGTACCTAACAT
B6: palindromic 18-mer (crystallization site), FP (dsDNA)
DNA 1: ATGTTAGGTACCTAACTA
DNA 2: TAGTTAGGTACCTAACAT
B7: half site mutant 18-mer (dsDNA)
DNA 1: ATGTTAGGTACCCGACTA
DNA 2: TAGTCGGGTACCTAACAT
B8: pSK1 Par(78–170) (domain or fragment)
chain: NNSDGFETLKTKVNELEKQVEIFETRAKNDEKYIENLTKQLDQQNSNVNTLNKLLENQQILALESNKKIQKLEHQLEEERQLSYSFDKSTNDR
B9: centromere repeat 4 (dsDNA)
DNA 1: ATGTTAGGCGGTAAACTA
DNA 2: TAGTTTACCGCCTAACAT

What was measured:
[1] = biological target: T1, Par(1-170); experiment: fluorescence polarization
[2] = biological target: the molecule itself; experiment: SEC

Binder | Kd [1] [nM] | stoichiometry N [2]
B1 | 62.7 ± 1.3 | –
B2 | 66.5 ± 4.9 | –
B3 | – | 4
B4 | 67.5 ± 3.2 | –
B5 | 90.2 ± 5.6 | –
B6 | 43.4 ± 1.5 | –
B7 | 195 ± 10.8 | –
B8 | – | 4
B9 | 140 ± 10 | –
